# Experimental data as given in paper PMC3175422.
# Target: calreticulin (CRT) (UniProt P27797)
# Experiment: SPR
# Chain of UniProt P27797 (P27797 18-417): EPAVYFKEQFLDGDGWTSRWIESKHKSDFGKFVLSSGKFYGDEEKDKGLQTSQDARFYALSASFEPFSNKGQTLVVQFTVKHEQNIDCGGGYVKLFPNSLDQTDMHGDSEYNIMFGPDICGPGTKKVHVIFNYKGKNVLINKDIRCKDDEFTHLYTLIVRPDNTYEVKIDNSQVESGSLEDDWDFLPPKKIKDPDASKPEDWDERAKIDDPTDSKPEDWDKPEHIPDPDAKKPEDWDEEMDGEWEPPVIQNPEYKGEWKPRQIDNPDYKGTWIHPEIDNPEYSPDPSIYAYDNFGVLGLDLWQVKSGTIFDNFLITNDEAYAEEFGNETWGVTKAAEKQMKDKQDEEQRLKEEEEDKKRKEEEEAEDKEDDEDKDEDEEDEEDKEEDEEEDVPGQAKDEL
Kd [nM],koff [s⁻¹],kon [M⁻¹ s⁻¹],Substance
110,0.00199,18100,Gal1Glc1Man9GlcNAc2-RNase (2) (from UniProt P61823 27-150) (enzyme)
38,0.000482,12800,Glc1Man9GlcNAc2-RNase (1) (from UniProt P61823 27-150) (enzyme)
